Results: patent US20190367620A1 (Merck KGaA, published 2019)

T1: ratFGFR1a-IIIc (rat, UniProt Q04589 22-376)
T1 construct: Bought, His6 tag; also called rat FGFR1a-IIIc His6-tagged
T1 sequence (looked up): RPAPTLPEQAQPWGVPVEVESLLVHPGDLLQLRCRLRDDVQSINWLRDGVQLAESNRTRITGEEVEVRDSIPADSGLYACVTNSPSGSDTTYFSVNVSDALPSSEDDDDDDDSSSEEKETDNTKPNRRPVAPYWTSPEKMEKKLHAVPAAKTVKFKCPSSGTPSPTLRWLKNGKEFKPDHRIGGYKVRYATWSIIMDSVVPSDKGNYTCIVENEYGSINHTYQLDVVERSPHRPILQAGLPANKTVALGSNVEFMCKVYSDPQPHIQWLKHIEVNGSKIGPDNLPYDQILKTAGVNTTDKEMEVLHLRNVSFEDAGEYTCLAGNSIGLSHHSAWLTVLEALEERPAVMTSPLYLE

T2: muFGFR1a-IIIc (mouse, UniProt P16092 22-376)
T2 construct: Bought, His6 tag; also called mouse FGFR1a-IIIc His6-tagged; murine FGFR1a-IIIc
T2 sequence (looked up): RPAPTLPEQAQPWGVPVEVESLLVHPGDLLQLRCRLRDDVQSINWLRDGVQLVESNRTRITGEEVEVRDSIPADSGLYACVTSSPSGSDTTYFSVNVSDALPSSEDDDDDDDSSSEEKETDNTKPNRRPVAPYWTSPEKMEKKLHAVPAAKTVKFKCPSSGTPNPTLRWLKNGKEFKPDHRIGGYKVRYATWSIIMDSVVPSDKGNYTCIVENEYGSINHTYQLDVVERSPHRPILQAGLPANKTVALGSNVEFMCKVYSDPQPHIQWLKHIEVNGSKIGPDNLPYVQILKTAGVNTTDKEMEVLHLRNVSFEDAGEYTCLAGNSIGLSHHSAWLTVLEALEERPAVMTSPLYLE

T3: human FGFR1b-IIIc extracellular domain with a HIS tag (human, UniProt P11362 22-376)
T3 construct: also called huFGFR1b-IIIc; hFGFR1b-IIIc
T3 sequence: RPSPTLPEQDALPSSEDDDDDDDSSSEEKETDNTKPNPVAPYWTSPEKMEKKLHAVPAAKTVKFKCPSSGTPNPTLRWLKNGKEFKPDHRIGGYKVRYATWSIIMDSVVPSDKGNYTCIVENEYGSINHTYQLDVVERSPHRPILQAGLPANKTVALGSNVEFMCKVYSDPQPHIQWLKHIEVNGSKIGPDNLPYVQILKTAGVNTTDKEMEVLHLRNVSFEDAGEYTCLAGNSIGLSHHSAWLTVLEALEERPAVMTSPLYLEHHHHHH

T4: Human FGFR1 D2-His6 (human, UniProt P11362 22-254)
T4 construct: also called D2 domain; F3FR1c-D2
T4 sequence: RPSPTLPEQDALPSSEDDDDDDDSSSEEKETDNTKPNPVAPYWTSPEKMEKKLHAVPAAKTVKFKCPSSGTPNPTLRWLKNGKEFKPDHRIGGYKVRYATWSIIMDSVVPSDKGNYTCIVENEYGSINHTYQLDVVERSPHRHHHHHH

T5: human FGFR1b-IIIb extracellular domain with a HIS tag (human)
T5 construct: also called huFGFR1b-IIIb; hFGFR1b-IIIb
T5 chain: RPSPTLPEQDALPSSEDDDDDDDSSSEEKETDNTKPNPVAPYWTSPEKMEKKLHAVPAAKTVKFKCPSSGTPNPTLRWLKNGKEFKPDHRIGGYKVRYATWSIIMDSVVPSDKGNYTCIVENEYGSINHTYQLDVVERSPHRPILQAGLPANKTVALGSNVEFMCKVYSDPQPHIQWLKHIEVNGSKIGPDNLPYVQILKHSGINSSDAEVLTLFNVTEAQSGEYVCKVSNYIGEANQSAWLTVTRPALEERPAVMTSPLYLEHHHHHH

B1: mAb #A05 (antibody, V domains shown)
VH: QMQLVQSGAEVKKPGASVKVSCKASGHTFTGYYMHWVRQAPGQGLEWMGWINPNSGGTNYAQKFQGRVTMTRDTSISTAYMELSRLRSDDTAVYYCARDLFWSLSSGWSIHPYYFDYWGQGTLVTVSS
VL: QSALTQPASVSGSPGQSITISCTGTSSDVGSYNLVSWYQQHPGKAPKLMIYGGSKRPSGVPDRFSGSKSDTSASLTISGLQAEDEADYYCCSYTYNGDVFGTGTKVTVL
notes: also called #A05 hit; A05 (IgG1)
B2: #G04 SEEDbody (monovalent) (antibody)
heavy: QVQLQESGPGLVKPSGTLSLTCAVSGGSISSNNWWSWVRQPPGKGLEWIGEIYHSGSTSYNPSLKSRVTISVDKSKNQFSLKLSSVTAADTAVYYCARGTDWYDLWGQGTLVTVSSASTKGPSVFPLAPSSKSTSGGTAALGCLVKDYFPEPVTVSWNSGALTSGVHTFPAVLQSSGLYSLSSVVTVPSSSLGTQTYICNVNHKPSNTKVDKRVEPKSCDKTHTCPPCPAPELLGGPSVFLFPPKPKDTLMISRTPEVTCVVVDVSHEDPEVKFNWYVDGVEVHNAKTKPREEQYNSTYRVVSVLTVLHQDWLNGKEYKCKVSNKALPAPIEKTISKAKGQPFRPEVHLLPPSREEMTKNQVSLTCLARGFYPKDIAVEWESNGQPENNYKTTPSRQEPSQGTTTFAVTSKLTVDKSRWQQGNVFSCSVMHEALHNHYTQKTISLSPG
chain: EPKSSDKTHTCPPCPAPELLGGPSVFLFPPKPKDTLMISRTPEVTCVVVDVSHEDPEVKFNWYVDGVEVHNAKTKPREEQYNSTYRVVSVLTVLHQDWLNGKEYKCKVSNKALPAPIEKTISKAKGQPREPQVYTLPPPSEELALNELVTLTCLVKGFYPSDIAVEWLQGSQELPREKYLTWAPVLDSDGSFFLYSILRVAAEDWKKGDTFSCSVMHEALHNHYTQKSLDRSPG
light: SYVLTQPPSVSVAPGQTARITCGGNNIGSESVHWYQQKPGQAPVLVVYDDSDRPSGIPERFSGSNSGNTATLTISRVEAGDEADYYCQVWDSTSDHRVFGGGTKLTVLGQPKAAPSVTLFPPSSEELQANKATLVCLISDFYPGAVTVAWKADSSPVKAGVETTTPSKQSNNKYAASSYLSLTPEQWKSHKSYSCQVTHEGSTVEKTVAPTECS
notes: also called #G04-SEED(AG)
B3: #A08 IgG1 (standard IgG1 built from the #A08 lead heavy and light chains) (antibody, V domains shown)
VH: EVQLQESGPGLVKPSGTLSLTCAVSGGSISSNNWWSWVRQPPGKGLEWIGEIYHSGSTSYNPSLKSRVTISVDKSKNQFSLKLSSVTAADTAVYYCARGTDWFDPWGQGTLVTVSS
VL: SYVLTQPPSVSVAPGQTARITCGGNNIGSESVHWYQQKPGQAPVLVVYDDSDRPSGIPERFSGSNSGNTATLTISRVEAGDEADYYCQVWDSTSDHRVFGGGTKLTVLG
notes: also called #A08 lead IgG1; mAb #A08 in the IgG1 format

Tests used:
ratFGFR1a-IIIc = molecular target: T1, ratFGFR1a-IIIc; experiment: SPR (Biacore 4000), antibody captured, His-tagged FGFR1 injected
Procedure: (§1) Binding affinities of anti-FGFR1 antibodies to FGFR1 were measured by Surface Plasmon Resonance (SPR) using a GE Healthcare BIAcore 4000 instrument as follows. Goat anti-human Fc antibody (Jackson ImmunoResearch Laboratories #109-005-098) was first immobilized on BIAcore carboxymethylated dextran CM5 chip using direct coupling to free amino groups following the procedure described by the manufacturer. Antibodies were then captured on the CM5 biosensor chip to achieve approximately 200 response units (RU). Binding measurements were performed using the running HBS-EP+ buffer. A 2-fold dilution series of His-tagged FGFR1 proteins were injected at a flow rate of 30 μl/min at 25° C. Association rates (kₒₙ, per mol/s) and dissociation rates (koff, per s) were calculated using a simple 1:1 Langmuir binding model (Biacore 4000 Evaluation Software). The equilibrium dissociation constant (KD, mol) was calculated as the ratio of koff/kₒₙ.

muFGFR1a-IIIc = molecular target: T2, muFGFR1a-IIIc; experiment: SPR (Biacore 4000), antibody captured, His-tagged FGFR1 injected; no unit in the table, nM inferred from paragraph 90
Procedure: as §1

rheFGFR1a-IIIc = molecular target: T6, rheFGFR1a-IIIc (rhesus monkey); experiment: as above
T6 construct: Bought, His6 tag; also called rhesus monkey FGFR1a-IIIc His6-tagged
Procedure: as §1

FGFR1 on NCI-H520 cells [1] = molecular target: T7, FGFR1 on NCI-H520 cells (human, UniProt P11362 22-822); experiment: cell-based or functional assay
[2] = molecular target: T3, human FGFR1b-IIIc extracellular domain …; experiment: SPR (Biacore 4000), antibody captured, His-tagged FGFR1 injected; differs from the cell of Table 1
Procedure: as §1

Human FGFR1 D2-His6 = molecular target: T4, Human FGFR1 D2-His6; experiment: ELISA, antibody titrated on FGFR1 Ig-D2, O.D. 450 nm [panel FGFR1 Ig-D2]
FGFR1 on NCI-H520 cells [3] = molecular target: T7, FGFR1 on NCI-H520 cells; experiment: cell-based or functional assay; remark: listed apart in the source
[4] = molecular target: T5, human FGFR1b-IIIb extracellular domain …; experiment: ELISA, EC50 from OD450 curves, monovalent SEEDbody format
Procedure: (§2) The binding selectivity of the antibodies were tested by ELISA against the different FGFR family members: FGFR1, FGFR2, FGFR3 and FGFR4. Briefly plates were coated overnight with the different His6-tagged FGFR proteins, after blocking with 1% Bovine Serum albumin, 1 or 0.1 μg/ml of anti-FGFR1 antibodies were incubated for 1 h at room temperature. After washing, the bound antibodies were incubated for 1 h at room temperature with a peroxidase affiniPure F(ab′)2 Fragment goat anti-human Fc (Jackson ImmunoResearch Laboratories #109-036-098) and detection was performed using the TMB HRP Substrate solution (BioFx Lab # TMBW-1000-01).
(§3) The antibody #A08 both as an IgG1 (bivalent) and as a SEEDbody (monovalent), was affinity matured using the yeast display technology described in (Rhiel et al. 2014) and performing light chain shuffling from immunized OmniRats and naïve human library followed by CDR-H3 parsimonious mutagenesis. Following several sorting rounds, yeast clones were picked, unique clones were reformatted as described in Examples 1.6 and 3.1. The binding affinities of the anti-FGFR1 molecules against human FGFR1b-IIIb) and human FGFR1b-IIIc) were measured by ELISA using a similar protocol as described in Example 1.9. The OD450 was plotted against the antibody concentration and GraphPad Prism software was used to calculate EC₅₀ values (see FIG. 10). […] The best results were obtained with mAb #A02 and #C01 showing an EC50 improvement in both IgG1 and SEEDbody formats.

[5] = molecular target: T3, human FGFR1b-IIIc extracellular domain …; experiment: as above
Procedure: as §2, §3

[6] = molecular target: T5, human FGFR1b-IIIb extracellular domain …; experiment: SPR (BIAcore), IgG1 format; target IIIb by paragraph 74 and paragraph 125, the table's title says IIIc; IgG1 (bivalent), not SEEDbody
Procedure: as §1
The affinities to human FGFR1b-IIIb for the affinity matured clones reformatted as IgG and monovalent SEEDbodies were measured by BIAcore (using a protocol similar to the one described in Example 1.8) and compared to those of mAb #08 (Table 5).

T7 sequence (P11362 22-822): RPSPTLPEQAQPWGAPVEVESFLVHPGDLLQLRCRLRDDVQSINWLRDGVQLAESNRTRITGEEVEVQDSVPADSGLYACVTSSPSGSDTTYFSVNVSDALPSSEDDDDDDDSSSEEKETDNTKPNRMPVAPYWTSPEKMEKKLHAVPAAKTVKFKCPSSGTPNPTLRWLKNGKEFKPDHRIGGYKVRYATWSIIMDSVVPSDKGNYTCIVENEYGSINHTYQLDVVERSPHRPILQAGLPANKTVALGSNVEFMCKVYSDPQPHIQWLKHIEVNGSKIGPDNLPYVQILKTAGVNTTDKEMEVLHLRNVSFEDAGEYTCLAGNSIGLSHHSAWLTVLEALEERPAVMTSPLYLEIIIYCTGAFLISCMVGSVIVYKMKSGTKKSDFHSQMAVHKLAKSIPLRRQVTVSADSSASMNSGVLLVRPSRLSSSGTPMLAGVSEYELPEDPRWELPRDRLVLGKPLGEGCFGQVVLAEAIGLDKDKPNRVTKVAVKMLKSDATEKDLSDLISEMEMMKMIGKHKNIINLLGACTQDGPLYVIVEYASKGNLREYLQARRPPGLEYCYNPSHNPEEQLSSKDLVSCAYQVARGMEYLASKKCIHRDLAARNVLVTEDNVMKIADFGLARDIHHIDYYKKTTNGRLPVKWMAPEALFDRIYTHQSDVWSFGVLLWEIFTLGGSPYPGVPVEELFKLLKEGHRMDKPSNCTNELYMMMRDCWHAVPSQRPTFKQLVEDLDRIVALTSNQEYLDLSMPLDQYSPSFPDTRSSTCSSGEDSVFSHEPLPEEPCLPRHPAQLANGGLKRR

Binder | binding result (ratFGFR1a-IIIc) | Kd (muFGFR1a-IIIc) [nM] | Kd (rheFGFR1a-IIIc) [nM] | IC50, pFGFR1 inhibition in NCI-H520 cells, FGF1, IgG1 (asterisk: partial response) (FGFR1 on NCI-H520 cells [1]) [M] | IC50, pFGFR1 inhibition in NCI-H520 cells, FGF2, IgG1 (FGFR1 on NCI-H520 cells [1]) [M] | IC50, pFGFR1 inhibition in NCI-H520 cells, non-stimulated, IgG1 (FGFR1 on NCI-H520 cells [1]) [M] | Kd [2] [nM] | binding result (Human FGFR1 D2-His6) | IC50, inhibition of P-FGFR1 in NCI-H520 cells, FGF1 stimulated (asterisk: partial response) (FGFR1 on NCI-H520 cells [3]) [nM] | IC50, inhibition of P-FGFR1 in NCI-H520 cells, FGF2 stimulated (FGFR1 on NCI-H520 cells [3]) [nM] | binding result [4] | binding result [5] | Kd [6] [nM] | IC50, pFGFR1 inhibition in NCI-H520 cells, FGF1, IgG1 (FGFR1 on NCI-H520 cells [1]) [M] | IC50, pFGFR1 inhibition in NCI-H520 cells, non-stimulated, IgG1 (asterisk: partial response) (FGFR1 on NCI-H520 cells [1]) [M]
B1 | no binding | 1.6 | 0.51 | 8e-09 | 3e-09 | > 1e-06 | 0.01 | no binding (tested: about 0.7 nM (Log(nM) about -0.15)) | 1 | 1 |  |  |  |  | 
B2 |  |  |  |  |  |  |  |  |  |  | binds | binds |  |  | 
B3 |  |  |  |  | 2e-10 |  |  |  |  |  |  |  | 0.06 | 1e-09 | 5e-08
